Reference: the DeepSol protein solubility set

Assay: soluble on expression in E. coli; label from the status in PepcDB or PDB records

Row | Sequence | soluble on expression in E. coli
1 | MADVALRITETVARLQKELKCGICCSTYKDPILSTCFHIFCRSCINACFERKRKVQCPICRSVLDKRSCRDTYQITMAVQNYLKLSEAFKKDIENMNTFKSLPPEKMFMESQMPLDITIIPENDGKRCAPDFAIPFLPVRRKRPSRPQPPSAFAEEPAEPVEPPEPATKQPVELQSRVFPLEKLKKDVETSTETYKISREELKNVDIEEYINTLRENSTEIDEIDALFQLMPTMRQFLRNNINQLMEKFHVAPPKKSEKPANRRVSFASSQDLENIKIMTASESLETPPEPIQKLAQKPEVFKSTQNLIDLNLNTAVKKPVVVASDDDEVVEDSEGELQIDEDDLANVTCATSVRNIGKSLCAEYIRGVRQICRICRLPSSANFKKVDLPNLPSSANFEICRTRQKFDSTISTKTTDFFAKNSQLIELVQQCGGEILSCYENLSPEKLYIIFSKHSKAIEESKNIENLYKCDVVTMEWVLDSISEYLILPTQPYKAVDSIGCLQD | not soluble
2 | MSSAQVNGISKRLIVESPNVKLEDGVLESRFTYRKNHFEHRADGLHVTPKEHDYSFKTVLKPRKTGLLLVGLGGNNGSTAVGSIFANQYAMTWRTKEGHSQANYFGSVTQTATVHLGYDSATQNQIFVPFKDIVPILSPNDLIISGWDISDSNLYEAMGRAKVFEPELQEKLRPFMEPIVPLPSIYYPDFIASNQGDRANNVIPGDNKLEHLEHIRADIRKFKQEHELECVIVLWTANTERYTDVRQGLNATADEIMESIRVNEDEVSPSNIFAVASILEGAHYINGSPQNTLVPGLIELAERHKVFVGGDDFKSGQTKFKSAFVDFLVSSGMKPESIVSYNHLGNNDGKNLSEARQFRSKEISKSSVVDDMVKSNQILFPDAKNPDHCVVIKYVPYVADSKRAMDEYICSIFMGGKQTFVVHNTCEDSLLASPLIYDLAILTELASRVSYKVDDEYKPFHSVLSILSLLLKAPVVPPGTPISNAFMRQFSTLTKLVTALAGFPSDTDMQIEFFTQLPAAKSKSQ | not soluble
3 | MKKHIALIFTPINKKYKDALTHYAPPLGLVALANYISERLQNVRISILDGSVTHSMEDIIKFIEDEKPDIVAQSVQLISYENSLVIAKSAHNIGSINVLGGQHATQMADAIIFRQQGLIDYVSIEDGEESLLGLLEERDISEIPNLVFMKDGKINRTKYFQLDLKNAPKLDYSIVDFKPYQKLLNESNFTNPNPINNYLRVYSHKGCGNRKNSVGCVFCGRADKGVRFKSPEKFWEDIKICADEFKADYIFDVGDDFLYNHDWVSKVAEIKPDIRKKFELGIFARANRVNLSIAKKLKKIGVTDVVIGFESGDEEVLRRCNKRDTSTETSLIAADALATAGIDITASFVLGLPGENSESLKKTIKCAEKVVNIITEKLGRPPREMVGNLIEPSPGSIAYNQLLKAYPGKYYLNDYVPLDEMQRDYFKYYFGLDSLKSYLEFRKELNKAAQEIHGLVSFSDSQGWLEDEFV | not soluble
4 | MGSDKIHHHHHHMTDRLFTETLLAAVGEDLLRTRLSEEFIRVDLGAETVAPLLTFDALSELLSTHQLEPPRLRLHRAGAPVPLDNYTEVGEASGVQRRLVRPEALYAQLRQGASLVLDGIDRIHPPIRAAADDLMRLVHERVQVNLYLIWGDSHGFNTHWDDHDTFIVQVAGTKHWQVHGQGTRPYPMKEDIDHSHQPPEGTVWEGTVRAGEVLHVPRGWWHTVTGTGDVSMHLTFGFTRATGVDWARWLVDRLYEVEFARRDLPRFATPEERRKHQHELLRHLMDLAEQHGLDEFLTDRDSRFPRRQSFSLPWAVDGATPQPDTVVEFTPILPSALRDEGQKVALTVAGRRYTFAKAAQPLLEVLVDARVLTVAELAERAGAEVETAAALARVLVQHHLVLLRSTS | not soluble
5 | GPGSMSYYDKSSSVGYDERDKELNEELEAMLARTPPHIQRHLQQRIHDGILQRMKEETTRKCWEFVKKYEGCVNSVQPYNIRECLPHRDALNDCAHEINCEDNYQKYRLLYLHGELLKLHEHRTGQKMEALKSRVPDSIRTWKSDYAPKYADMMSEVGAKPFTGEGENLDDE | soluble
6 | GMPENTAMAALLPEESLFFRELVKQWRAQDSYGTWEKKSDMELLAPYVLDKEQRRAIPIIGDPDPEILWRVELFYNAVGLATERASGVMVSPMMKMSHEGFGRMVLIAGRLIVVNKQLRDVHRFGFPSMEKLAEEGDKLVAGALEMIEKFPEVARF | soluble
7 | MSLAPAEWVALNYVPFAERSLEVVVDLYQKTACHKAVVNEKVLQNIIKTLRVPLSLKYSCPSESTWKLAVSSLLRVLSIGLPVARQHASSGKFDSMWPELANTFEDFLFTKSIPPDNLSIQEFQRNENIDVEVVQLISNEILPYANFIPKEFVGQIMTMLNKGSIHSQSSSFTEAEIDIRLREEFSKMCFETLLQFSFSNKVTTPQEGYISRMALSVLLKRSQDVLHRYIEDERLSGKCPLPRQQVTEIIFVLKAVSTLIDSLKKTQPENVDGNTWAQVIALYPTLVECITCSSSEVCSALKEALVPFKDFMQPPASRVQNGEEGHHHHHH | not soluble
8 | MSVIQNIIGRIAVLRGGKYSVEVDVATDEGFGRFTSPIDDNPMLHIAEARRAVSEVDEIIGPELIGFDASEQELIDSYLWEIDGTEDFSHIGANTALAVSTAIAKAAANSRDMPLYSYIGGTFATELPVPVLSFAQDDMFDYYLVVKDLLEVTDIIDATNKIREIVKEINLENLSKASEDVGVELGLEVALGIGMKKEMDIEKVLNLVEDYNVAYIKPIGPPELFLELIAGTHGVFIDGEYLFRTNSVLDRRYYNALSIKPINLGTLTDLYNFVNDVKAEKITPILAEAKYEPADETFPHIALGLRCPAMLISWSSIEKINELNRIAEELGERGRIITFEE | soluble
9 | SSHGHSHGGGGCRCAAEREEPPEQRGLAYGLYLRIDLERLQCLNESREGSGRGVFKPWEERTDRSKFVESDADEELLFNIPFTGNVKLKGIIIMGEDDDSHPSEMRLYKNIPQMSFDDTEREPDQTFSLNRDLTGELEYATKISRFSNVYHLSIHISKNFGADTTKVFYIGLRGEWTELRRHEVTICNYEASANPADHRVHQVTPQTHFIS | soluble
10 | MRIGHGFDVHKFGENGSGPLIIGGVRIPYEKGLLAHSDGDVALHAATDALLGAAALGDIGKLFPDTDPAFKGADSRGLLREAYRRILAKGYKLGNLDITIIAQAPKMAPHIPQMRVNLAEDLQCHMDDINVKATTTEQLGFTGRGEGIACEAVVLLVNVEQG | not soluble
11 | MSLRDYRYSDAHVHYVDFFQESEGMPRLLEAMDKGRVDHVMLSGVAVAKKWHKDEPKRPRYYAGDDAGAYWYSATDVIVAAAVKSLPAEQRRRVHPFLTGFNPTDKNADAHIRRMLELDPGLWQGIGEIFTRHDDLTALTYGDVPRANNEALARVYHLAAEFDLPVLLHANVTSKRERNPLYLAEIEEPLRNHPHVRFIWAHAGTSMEIHRHQKKLDFLLPTLRRLLQRYPNLYIDLSWSVLRPYLLDEQGKPDPQWLALVERFPQRFMLGSDVVGQFDSLPELMASFDPFLDALPEQVARQVARDNFLAVLPREGHHHHHH | soluble
12 | MMEMITIKPGKITVQANPNMPKEVAELFRKQHYEIVGRHSGVKLCHWLKKSLTEGRFCYKQKFYGIHSHRCLQMTPVLAWCTHNCIFCWRPMENFLGTELPQPWDDPAFIVEESIKAQRKLLIGYKGNPKVDKKKFEEAWNPTHAAISLSGEPMLYPYMGDLVEEFHKRGFTTFIVTNGTIPERLEEMIKEDKLPTQLYVSITAPDIETYNSVNIPMIPDGWERILRFLELMRDLPTRTVVRLTLVKGENMHSPEKYAKLILKARPMFVEAKAYMFVGYSRNRLTINNMPSHQDIREFAEALVKHLPGYHIEDEYEPSRVVLIMRDDVDPQGTGVEGRFIKH | soluble
13 | MLTTTTNDILDQLRPLTVTKRGGAQTKFHPYKIDFVLRRLLATDDEVRVVKQALVAQYQDADNIDTRELRSTMMQILNAQGLTAAAKAYQDYFEAEQQRFAAATN | not soluble
14 | MGSDKIHHHHHHMSRQKFVNRERELAFLEERYASGDAELLIIYGRRRIGKTELLLHFARNKEHVYFLASEKPYRDNLRELQRMMGDFLGDRLFSRIEFSDIDELLIEFSKRVRGRRVVLIIDEFPYLIEHYKPVLSLIQRAWDMELSKSDLLLILCGSSVSSMETEVLGYKSPLYGRRTGQWMVDELPFWSLREFFPSYSTEDIVKVYGVLGGIPAYLLQFDPEKSFDENVVEKVLSKGAFLYEEAEILLKEEMREPANYFIILQAIASGRSRFGEIVNATGLDKSLVSKYLNVLEKLRIVEREVPVTASRKEALKRGKYSITDNYLAFWFRYVLPNKSYLETGLGKEIWERSKEDFKEYMGGVFERLLRKPEVFTKLTNFRFTKIGRWWHKGEEIDLVALNEREKKALFIEVKWKDLSEREARGILKDLKRKVKLVGLDEWGKHYGLVAKNVKGKDKIKEEGWLAWDLEDFERLGVSG | not soluble
15 | MTWADEVLAGHPFVVAHRGASAARPEHTLAAYDLALKEGADGVECDVRLTRDGHLVCVHDRRLDRTSTGAGLVSTMTLAQLRELEYGAWHDSWRPDGSHGDTSLLTLDALVSLVLDWHRPVKIFVETKHPVRYGSLVENKLLALLHRFGIAAPASADRSRAVVMSFSAAAVWRIRRAAPLLPTVLLGKTPRYLTSSAATAVGATAVGPSLPALKEYPQLVDRSAAQGRAVYCWNVDEYEDIDFCREVGVAWIGTHHPGRTKAWLEDGRANGTTR | not soluble
16 | MTERLKVMTIFGTRPEAIKMAPLVLELQKHPEKIESIVTVTAQHRQMLDQVLSIFGITPDFDLNIMKDRQTLIDITTRGLEGLDKVMKEAKPDIVLVHGDTTTTFIASLAAFYNQIPVGHVEAGLRTWDKYSPYPEEMNRQLTGVMADLHFSPTAKSATNLQKENKDESRIFITGNTAIDALKTTVKETYSHPVLEKLGNNRLVLMTAHRRENLGEPMRNMFRAIKRLVDKHEDVQVVYPVHMNPVVRETANDILGDYGRIHLIEPLDVIDFHNVAARSYLMLTDSGGVQEEAPSLGVPVLVLRDTTERPEGIEAGTLKLAGTDEETIFSLADELLSDKEAHDKMSKASNPYGDGRASERIVEAILKHFNK | not soluble
17 | MAHHHHHHMPLTCRSFCEWALAYMGTQEYTPSIIQQRNSMAAAERDPDDRNVLDFSTYEDYLDQQVTGEDLFYLEDQDAARKIVELGYKGKDVLSREEFEAAQYLARTGPLKRRESAEVITSAGKDVSDSPLLTALAKREELVRTGKLATVLFLRDYVSGQEVSAYIDYGYRLRSENFEAYFKKDKKLLPKRSDLSYYNWKTHTLFYNNSPTFQVLADSTLGLVMKHKRDRKAIHVDPNSPSPGENCSRTVVPCKDYLQAVIYDHVTRRKN | soluble
18 | MAHSTIPTLLCFCDEPLKRTNEGAEHVNQARRYAKWHVYRERGYETVPPTENPDSLLAACIAVARLSETAFEDAFGDIEAQIRSHYDDSTVELPFADADGSDILVYKKDIAVRPDPMTFDPPVLEQFLGQFSGDSDSPVVPAKADLDREVFDDLDFELKSVSGMHYLHNDGYDNERTVQSSQRLGTDPDATVEMIPVDPAEFGNFQHYVTSNLIYQARDVLLRMGVKPPIAFRAQGQGKYRATLEQQACPQYENYWDATADIQSWEPK | not soluble
19 | MSLIPDVSQALAWLEKHPQALKGIQRGLERETLRVNADGTLATTGHPEALGSALTHKWITTDFAEALLEFITPVDGDIQHMLTFMRDLHRYTARKLGDERMWPLSMPCYIAEGQDIELAQYGTSNTGRFKTLYREGLKNRYGALMQTISGVHYNFSLPMAFWQAKCGVTEGGSGKRKISAGYFRLIRNYYRFGWVIPYLFGASPAICSSFLQGKPTTLPFEKTDCGMYYLPYATSLRLSDLGYTNKSQSNLGITFNDLHEYVAGLKRAIKTPSEEYARIGVEKDGKRLQINSNVLQIENELYAPIRPKRVTRSGESPSDALLRGGIEYIEVRSLDINPFSPIGVDEQQVRFLDLFMVWCVLADAPEMSSDELLCTRTNWNRVILERRKPGLTLGIGCETAQFPLPKVGKDLFRDLKRVAQTLDSIHGGEEYQKVCDELVACFDNPELTFSARILRSMIDEGIGGTGKAFGEAYRNLLREEPLEILQEEEFIAERDASVRRQQEIEAADTEPFAAWLAKHAEGGSHHHHHH | soluble
